Assay results reported in patent CN110526968A (UNIV NORTHWEST A&F, dated 2019).

Biological target: T1, 金黄色葡萄球菌肠毒素B (Staphylococcus aureus, UniProt P01552 28-266)
T1 construct: also called SEB
T1 sequence: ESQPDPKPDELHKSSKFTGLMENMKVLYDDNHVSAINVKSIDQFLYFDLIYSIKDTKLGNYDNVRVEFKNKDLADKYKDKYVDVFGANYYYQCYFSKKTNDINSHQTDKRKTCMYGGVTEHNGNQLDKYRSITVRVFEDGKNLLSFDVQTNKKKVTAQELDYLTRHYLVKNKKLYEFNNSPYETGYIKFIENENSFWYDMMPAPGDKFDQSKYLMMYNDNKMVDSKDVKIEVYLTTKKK
Experiment: phage ELISA on coated SEB, HRP anti-M13 detection

B1: 噬菌体克隆B7 (VHH)
VHH: ESGGGLVQAGGSLRLSCKVSGFNFREHALAWFRQAPGKEREGVSCIRGSGDYTTYADSVKGRFTISRDNAQNTLYLQMNSLRPEDTAMYYCAAARYARYYPNNCLDSAEYGYWGQGTLVTVS
notes: also called B7克隆
Does B1 bind?
Result: binds
